Data as given in the domain aggregation screens of Martell et al. (2025).

assay: soluble fraction after stress (log2 fold change); higher = more stays soluble; pooled small domains, quantitative proteomics; settings: stress: pH 4
Summary of the method: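 High-throughput quantitative proteomics was run on pooled custom libraries of small protein domains following pH 4 stress. Fold changes are on a log2 scale; higher values mean more of a domain remained soluble. The fold change in soluble amount is taken as a measure of aggregation propensity.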

Row | Sequence | soluble fraction (log2)
1 | HMLTSIDQMLKLAMPDSDITVSKMNGLILLTGTVKAPEDAAEAERLVQAFSAPPPGQPPVTVVSRLRTA | 0.22
2 | HMLRPMVAILNKNISKGQVISEDYIKFEVRPERQIHGAYHDISEVLGRKTKNNIAAGTILKVRHLDT | 0.375
3 | HMLPKNITNTIDHWIQKFPQGKQRSAIIAALHAVQHHNKGFLTNDLLNQVADYIDVPKMNVYEVATFYSM | 0.22
4 | HMKSPVKLILRGSIYHIKISAVVNGQRIFVRESSHTTDKREAEQYANKRFAQLVEETEFRTN | -0.907
5 | HMVAREAYTTQNLTDVFSISRQAVEKRAKREGWQSVPRKGRGGGKLWVVSSMPAETRDLLASLLLRK | ≥ 0.43
6 | HMNQNAMIGAHIRNLRLAKKLTLKQLSDESGLSVGFLSQLERGMSSIAIDTLARLAHILGADLSSFF | -0.214
7 | HMNSSTVDLAKEFLIDLLSSVEKMPASEVQEEAKNAGYSVASIRRAKDNLNIKPFKDGSAWYWKLPSIFK | -0.447
8 | HMNTETAVTKAIDQIQVMMDLRNRSVSFTRDQETGTDIIKVIDDNTGDTIRQMPSEELLTFMKNLTQ | -0.332
9 | HMTTVTVGSKVRVKAGATFSDGAKPFAEVYNTVYDVQLLSHNGKEARIGIGDQWTGWIYISDLYLANQPAP | -0.101
10 | HMVRRSERLHALTESLRRSGNRGRTAEQLATEFEVSVRTIKRDLVALEASGLPLWSRPGPGGGYGLLS | -0.0236
11 | HMVSKEELANSIYENKTADELGNIVLRKGKYSGEMLRTIYVKDIGYLEWHSKQSYEYSNAVKWYLKKLE | -0.846
12 | HMETPQIVARGDLITMVFRSGSLVLTAKGKALENGAMGDTIRVVNSDSNKTLAARVSASREVTVSE | -0.146
13 | HMPLLELPDDFYPAWKPKTIYVQGQRIMLDGVAFEAKWWTQGDNPASGQADPGSSPWRTLTQEEIAKLLE | -0.56
14 | HMKTEKYIQVISGTVNVRSGPGTSYAEIAKIDASQIYVVTAKEGEWLKISLANGTIGYVAGWLVKEVTG | -0.331
15 | HMGLTLREKMGHVLEMLKGREFLPFVSLFTVEEGRIGVVVTFMSILELVKEGILDLVQTESFGPIHVKAR | 0.0455
16 | HMTKLPLLVELSRIIPTDTWVKKIKFSLGSVEFVGISKSASRLLPIVENSSYFHDTKFIGTIVT | -0.274
17 | HMLIDQYPYSIIYRLIPHGRSNAVPAAQIVGLTKLDERSIRIYVEAMRREGHIIASSSKGYYFPASIEE | -0.589
18 | HMQVSDVTELRTILEKVITENESVATEFKEGKDAAMNFLVGQGMKATRGAADPALLKEIITGIL | -0.358
19 | HMNSEELFLRRIAQELIDQHGKDLHRIIVVLPSNRSKVFLKKFLFEILGSAFLTPQLMLLPQFVKSIV | -0.34
20 | HMDMQMPIMNGLEFLERINLTLDDNFSIIVLTGKIEDKSIEKSFELGINAYLRKPFNIYALLGIVRQN | -0.102
21 | HMDRVSEITLTRLRDYAADGQVRTATLTHRTNVVTGTLRDGRRFSAGVPPMYGDELTTFLLDNGVRVDSDN | -0.276
22 | HMVEDFSEVLLQYIREQGGAIALNDKTDAGVIYDTFGVSKKTFKKAVGDLYKKRLIVLGDEGIRLA | -0.939
23 | HMGRKPATTIPLQVRNAVLDLYRTKYYGANFQHYTELLHEHEGIRISTSSVAKILEAEYILSPK | -0.838
24 | HMYSKVSFTVSVGMTSERVSASLKALGIIDDSAKFNRYLVSNGYSTRIKVGTVELQAGQSYAEIASKLV | 0.151
25 | HMVELVKVPALQGETVDEAIADIKDAGLEPGQVRYVESDLPKDTVTYQSVDAGEQVKAGTVINLQASKGP | 0.137

Row | Sequence | soluble fraction (log2)
26 | HMLLTPLEETRLVIEEIVIPQKLTIDLLPRSSAIRKLQHELITHYQLRGTSVGNEPNRRLRIYP | -0.633
27 | HMPIDNTLLSRITSLGVSTTEAEKLISKHGEEALKANLEVVEERLSKPNLPLLDSPAAYLKTALKNG | 0.224
28 | HMTIERVKIKETPTGWLRVRETPDNNGSEIGRANVGEIYELLGSKGEWYHIVYKGKQGFISTKYAEKVL | -0.124
29 | HMEPVTETVYAMDTVNIRAAADQTSEKIGSVTVGTALTRTGTDGDWSIIDYNGTTGYVKSEFLSNTAPEV | -0.22
30 | HMNNFTPEHLEKDIEGSLFFRRLKETAREEPGSLTVAQKDFIQMWHDQADGVYTLRQVFVQTAFDHVRSL | 0.22
31 | HMILVLKPGAPEDLKNELIHDIEKMGLRVHVSVGEGTTIIGLIGDTSKISKYTFSSYEIVSNVLRVT | -0.35
32 | HMSEPHPPFQVVAQFPYKSEYEDDLNFEKDQIITVTSIEDDEWYYGDFKNKGGELVEGIFPKSFVTVK | -0.867
33 | HMQQEAVNLVQSRGQQAIEPVHIMQGVMKVGENVTNFIFQKLGMNGQQVALVVDKQIDSLPKVSGGEPYL | -0.0637
34 | HMNEIDDYDIQLLEYLSKGVSQEAMESVFKQAGITPNSKSTIEKRISKLKIYFKALNTTHLVSITKDLGL | -1.27
35 | HMNQSYQLWIKDDELGPTPRSVGVLNEHFEVDPAALTNYDAELLRRATFGISLEPRGGSPTGQP | -0.688
36 | HMLSLSDIINDVMERLTREKNLTFDELLGEKRERRRIVYTFLALLELIRLKMIKAYQTAAFGVIRIFPR | -1.15
37 | HMTAYEGLPVTLIIDGRVFQQNLQKMNLSVEWLRLELKKFGVTNLKEVLFASLDTEGKLFYQLKT | -0.878
38 | HMGQKASEVEKIFVELQQQIIRGDLPPGYRLVESQIAAQFGVSRTPARLAIERLATAGLVAHETNRGATVH | -0.36
39 | HMGSEISYSEFLNRVEQGQVAAVRLDGEQIFITGPTGEAYQTIQPRNTDVLPDLREAGVEIQAAPQ | -0.675
40 | HMSLQNTMANFAGGVLVLFLKPFKAGDYIVTKDGEGTVASIGLVYTTLLTIENKRIVIPNSSISNSPITN | -0.673
41 | HMSEPTVVAINETLTSERLDRYLTTQLPHISRGGIQRLLRKGNILVDGKPAKPTQHPVAGQTVEITWPIPK | -0.02
42 | HMANYTVNAYNNGGTGGSVNMRSGPSTNDGIVVRVPHGATVTGTKSGTWSYMTYNTYTGYMMSVYLDEQS | -0.0556
43 | HMGIFDIIQEINRQGVTVLLIEQNANMALKIADVGYVLETGRISLTGSGRELLANEAVKKAYL | ≥ 0.43
44 | HMSTADGGYPSIVINDGRVIDTNLQKLGLDRSWLSAELKRQGKGSEKDIFLMTVNQRREVYISVKEA | -0.589
45 | HMFTGELESRVFELNYVDGLVASAALAGVLTDKGSATPIASRAGGENDMLLVVDRIASYSQIEKIITQLD | -1.31
46 | HMRPEKLVLKALRGAHGPLSAEEVAGRIEADGGAGLDVARVEHVLGQLERSGTVAALGGGKYLALR | 0.123
47 | HMEGFSAGQFVRASVDNTAFYLKRPKGDAVADKLLRRGASMKVISASGDYLKVELDSGEVGFVPPVMVE | 0.0892
48 | HMNENDENLRQQAIDASKEVRRWGEPVTLPPMNAHDRRIIHITLEGESDLQTESTGEGNFKSVVISLK | 0.0645
49 | HMDVLFGNRLRQLLDERNISQAHFADRIGVSRSRMNNYVAQRSEPDYATLIRIANTLDTSIDFLLGKS | -0.45
50 | HMIKLSTNENTALRLVMERGLVTESELKGLFDNPVAVMESLISKMIETNTHWIHSERSENGEWVYAWQ | -1.46

Row | Sequence | soluble fraction (log2)
51 | HMLLSHTAQREGELLTFLRGELALSSGLVKRLKWQNAFFLDGAPVHTNARVKPGQEITVRIEE | -1.09
52 | HMTQEHDESVNLGKRLLDQALSRFGTSYRQLKKSEIKRILQSSGASTFKYILHQIGLGNRVPLAIANLIV | -0.0152
53 | HMQPLGHDLTERELDVLALMVTGMNNSEIADKLVVSRSTIKYHVSNILSKLQATSRTEAVAYALQQNLVH | -1.41
54 | HMLALKSGQVVVGTIIRRLDNTTAMLRIGNQLFETSFAKGLPKSNHILLRYDAMQGNRFIFTMVE | -0.063
55 | HMQINLSEWVLAAREYAGPEMTQEKLAEHLGRTKANVSAMENGRSKPSFEQMMEIHRVTGYPLPYQ | -0.0156
56 | HMDPALSPAEQKIWDLLAAGETHIDDLVRASGLPVATVNSALVMMEMKEVISQVAAKTYRRNRRN | -0.458
57 | HMSIQMPDLSITPVTDAKKKIESLQLQYKEVGEYNDSVIAGYVIRTEPASGSYLNEDEEVIIYVSKG | -0.525
58 | HMKDKSEKTKKLIFEAAFKIIREEGFSELSANKIAQVASVSKGVIFHHFSQMDDLYLFMLDTL | 0.192
59 | HMGVMNEYEELRDRYLTGQIWKIGDLVEAKGIEGKIIQRGTNYITFNDSQGKVHKAWLHEIKV | ≥ 0.43
60 | HMISDAEWTIMKALWQSEDKKMTLKEIAEAVADSGWSYTTVRTMVGRLVEKEAIEADESHPRNFRYSAA | -1.4
61 | HMNPTSLTFRSNVKDGKVYVDGIFKGSSDLDFDLPKGRHSIRIEKDGYVPFAKTINLIKALVIDFNMEKA | 0.123
62 | HMGYVQLTAREKEVLQGLVDGASYKMIAAKLDIRFGTVHTHVKNIYEKLHVNSASEAVVKAIRQRL | -0.743
63 | HMEINEDEIYEKIMIEIEQDNKVKSTWAKALSQSDGNKDKAESLYISMRFEELKYHQSYQKEELNLKDNQQ | -0.989
64 | HMLSVRERMSAILVSLEGERYADFTGLFDPTEGKGGVTVTFLAILELLKESMIDVVQNELYGPIHVRAA | 0.122
65 | HMDQDLGFLINKYFELGKDYNTLVEIYEKIKEYIASIDKKMLEYTKNFTIEQLKKWLDDGTINNIILTLG | -0.382
66 | HMLRDMIIQSYRYYTDKERNPRQVWNRMEADAFWEIIRDYEGYNGDGYVHTKIIPEMEALTVIEMDN | -1.62
67 | HMTTVKDRVYEILKREIVLGKLKPGEPINIAVLSTKLNISSAPLREALNMLSRDGLVTLNPRKHAAVSE | -0.0431
68 | HMSNRFIQFRQRAIDWLNSDRDFNAGILLLEESGFKPGVVAKLKRHGVNGPEAKKRLKFLINELVKAWA | -0.374
69 | HMGVRPAALGFQKVRIEPQVGTFREASGDVITPRGLIHAEWKRDEENALHLHYTLPDGVAYA | -0.109
70 | HMNKPLFVYPNPVHQGKINLSKATNFMVVDLLGQTVNKTNYGKDFSIDNLPNGVYFIKTTEGEIIKFMK | -0.496
71 | HMLQLKEPLKKVYERLTPVPKTAETILAELWEKGEYLDIAALHRALMELELSGYVRQSSPGYFGTSA | 0.00945
72 | HMKHAIKEKIRNEYVHGYLNEEGYRVMPTLDELIRKYEVPASSTYRASSKEGWKKQKEAFLEHLRGEIDA | -0.0601
73 | HMYYDDEELDDYRGKASDAYTAAEVEQFEEVLTTMRPEEVHGWLRSLQLRGVALPDALKDEAYMIVSEQAE | -0.727
74 | HMNNVDQLIEQYKTLPGGLLPLLHAIKHALGYIPESTVGSIAKGFNLSRAEVHGVISFYHDFNTQP | -0.365
75 | HMAIRLIKASREFNVGISTIVEFLEKKGHAIDSDPNSKIPDELYQLIEKEFQTEGSVKKAAKQI | -0.335
